Patent publication US20100015130A1

Experiments:
[1] = molecular target: GSK3β as used in the surface plasmon resonance (SPR) binding assays (Homo sapiens (Human)) (UniProt P49841); assay: SPR, stoichiometry inferred from the response
[2] = molecular target: GSK3β as used in the surface plasmon resonance (SPR) binding assays (Homo sapiens (Human)) (UniProt P49841); assay: SPR, peptide at 25 µM on GSK3β

Sequence of GSK3β as used in the surface plasmon resonance (SPR) binding assays (Homo sapiens (Human)) (P49841 whole entry, form in doubt): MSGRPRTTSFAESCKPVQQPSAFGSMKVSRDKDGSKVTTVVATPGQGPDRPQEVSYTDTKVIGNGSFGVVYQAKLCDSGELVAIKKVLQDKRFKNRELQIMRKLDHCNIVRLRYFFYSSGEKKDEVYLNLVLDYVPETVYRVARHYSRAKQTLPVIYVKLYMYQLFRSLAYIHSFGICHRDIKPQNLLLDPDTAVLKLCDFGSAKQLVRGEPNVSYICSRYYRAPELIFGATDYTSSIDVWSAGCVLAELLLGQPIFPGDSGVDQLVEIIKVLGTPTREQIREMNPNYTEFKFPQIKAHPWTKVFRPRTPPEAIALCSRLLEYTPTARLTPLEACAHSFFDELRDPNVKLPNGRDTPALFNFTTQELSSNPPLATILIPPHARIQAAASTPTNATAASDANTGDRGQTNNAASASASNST

peptide-protein ratio (peptide:protein) [1]: 2
percent theoretical maximal response [2]: 259%
Substance: L803-MTS (commercial GSK3β peptide inhibitor, Calbiochem)
